Experimental findings from PMC2943609 are described below.

The target of series [1] is T1, CggR (Bacillus subtilis, UniProt O32253 1-340). Nature of the series: SEC and SAXS.
For series [2], the target named is T1, CggR. Nature of the series: SEC and SAXS. The source holds these as a separate data set.
Series [3] deals with T1, CggR. As to the kind of experiment: two-photon FCCS.

T1 sequence (O32253 whole entry): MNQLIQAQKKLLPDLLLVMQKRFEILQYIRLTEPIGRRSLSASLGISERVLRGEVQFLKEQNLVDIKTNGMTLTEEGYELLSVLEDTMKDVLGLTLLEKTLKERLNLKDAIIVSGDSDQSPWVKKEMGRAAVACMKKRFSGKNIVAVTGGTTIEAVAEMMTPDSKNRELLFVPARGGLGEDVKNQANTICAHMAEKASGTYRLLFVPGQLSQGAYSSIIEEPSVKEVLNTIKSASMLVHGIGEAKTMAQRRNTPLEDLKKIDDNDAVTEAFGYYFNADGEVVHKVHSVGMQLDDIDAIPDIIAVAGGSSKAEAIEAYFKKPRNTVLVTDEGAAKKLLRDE

B1: OR right half-operator, 23 bp (dsDNA)
DNA 1: TAGCGGGACATATAATGTCCAGC
DNA 2: GCTGGACATTATATGTCCCGCTA
Regarding B1, the binding result with CggR [1] is recorded as “binds”.

B2: OLR full-length gapA operator, 45 bp (dsDNA)
DNA 1: TGACGGGACGTTTTTTGTCATAGCGGGACATATAATGTCCAGCAA
DNA 2: TTGCTGGACATTATATGTCCCGCTATGACAAAAAACGTCCCGTCA
Take B2: the binding result in the series with CggR [2] is recorded as “binds”.

B3: OR 23 bp, fluorescent (mix of two singly labelled duplexes) (dsDNA)
DNA 1: TAGCGGGACATATAATGTCCAGC
DNA 2: GCTGGACATTATATGTCCCGCTA
As to B3, the binding result with CggR [3] is recorded as “binds”.
